Values quoted from earlier work, collected in US20080125354A1, “SELECTIVE INHIBITION OF MATRIX METALLOPROTEINASES” (Florida Atlantic University, priority 2005, published 2008).

Columns and labels:
[1] = molecular target: T1, MMP-1 (Homo sapiens, UniProt P03956); conditions: MMP-1, second earlier study
T1 construct: made in house
T1 sequence (P03956 100-469): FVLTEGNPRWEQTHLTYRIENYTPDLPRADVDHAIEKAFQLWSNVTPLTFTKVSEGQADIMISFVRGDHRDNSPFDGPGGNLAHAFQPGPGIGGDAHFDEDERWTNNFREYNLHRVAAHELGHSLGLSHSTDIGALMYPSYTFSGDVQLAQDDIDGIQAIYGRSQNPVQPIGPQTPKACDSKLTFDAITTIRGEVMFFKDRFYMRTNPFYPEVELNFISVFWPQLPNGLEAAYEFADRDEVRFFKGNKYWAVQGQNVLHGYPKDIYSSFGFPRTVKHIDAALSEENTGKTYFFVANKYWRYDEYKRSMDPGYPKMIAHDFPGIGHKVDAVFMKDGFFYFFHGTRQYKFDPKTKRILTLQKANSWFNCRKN

[2] = molecular target: MMP-9 (Homo sapiens, UniProt P14780); conditions: 30° C., 40 nM enzyme, 40 μM substrate
MMP-9, sequence (P14780 94-707): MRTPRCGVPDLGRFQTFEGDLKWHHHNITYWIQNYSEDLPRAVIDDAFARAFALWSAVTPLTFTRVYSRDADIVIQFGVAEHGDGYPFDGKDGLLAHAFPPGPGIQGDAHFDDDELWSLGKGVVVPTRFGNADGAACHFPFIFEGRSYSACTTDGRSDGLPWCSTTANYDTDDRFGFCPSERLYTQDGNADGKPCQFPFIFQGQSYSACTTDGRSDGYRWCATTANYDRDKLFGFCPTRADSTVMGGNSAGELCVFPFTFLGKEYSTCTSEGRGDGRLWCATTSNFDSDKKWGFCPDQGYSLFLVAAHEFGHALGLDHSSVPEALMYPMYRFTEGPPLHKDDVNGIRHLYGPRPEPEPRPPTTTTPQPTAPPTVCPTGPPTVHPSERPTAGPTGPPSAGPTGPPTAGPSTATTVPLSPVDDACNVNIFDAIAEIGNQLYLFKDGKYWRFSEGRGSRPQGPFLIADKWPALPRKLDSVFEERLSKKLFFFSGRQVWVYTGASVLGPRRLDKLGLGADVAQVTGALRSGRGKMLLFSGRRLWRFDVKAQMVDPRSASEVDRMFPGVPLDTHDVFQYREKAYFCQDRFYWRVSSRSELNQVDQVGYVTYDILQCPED

[3] = molecular target: T1, MMP-1; conditions: 30° C., 40 nM enzyme, 40 μM substrate
[4] = molecular target: T2, MMP-2 (Homo sapiens, UniProt P08253); conditions: 30° C., 40 nM enzyme, 40 μM substrate
T2 sequence (P08253 110-660): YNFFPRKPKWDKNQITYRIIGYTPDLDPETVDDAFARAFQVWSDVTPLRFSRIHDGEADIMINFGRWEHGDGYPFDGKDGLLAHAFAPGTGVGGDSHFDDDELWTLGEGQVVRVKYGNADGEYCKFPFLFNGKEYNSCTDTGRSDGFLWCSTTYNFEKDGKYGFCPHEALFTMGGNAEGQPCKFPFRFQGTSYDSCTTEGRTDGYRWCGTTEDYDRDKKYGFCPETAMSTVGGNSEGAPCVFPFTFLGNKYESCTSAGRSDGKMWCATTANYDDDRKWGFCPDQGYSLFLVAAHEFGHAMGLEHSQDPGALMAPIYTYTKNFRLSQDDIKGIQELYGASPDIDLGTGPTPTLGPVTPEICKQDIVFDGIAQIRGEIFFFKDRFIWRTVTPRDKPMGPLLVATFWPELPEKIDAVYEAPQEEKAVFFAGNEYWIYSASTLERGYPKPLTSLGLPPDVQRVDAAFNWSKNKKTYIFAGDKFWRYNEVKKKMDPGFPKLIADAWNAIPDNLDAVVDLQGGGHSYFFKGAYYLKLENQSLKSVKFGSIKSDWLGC

[5] = molecular target: MMP-14 (Homo sapiens, UniProt P50281); conditions: 30° C., 40 nM enzyme, 40 μM substrate
[6] = molecular target: T3, MMP-13 (Homo sapiens, UniProt P45452); conditions: 30° C., 40 nM enzyme, 40 μM substrate
T3 construct: purchased R&D Systems (Minneapolis, Minn.)

[7] = molecular target: T4, MMP-3 (Homo sapiens, UniProt P08254); conditions: 30° C., 40 nM enzyme, 40 μM substrate
T4 construct: made in house
T4 sequence (P08254 100-477, species assumed): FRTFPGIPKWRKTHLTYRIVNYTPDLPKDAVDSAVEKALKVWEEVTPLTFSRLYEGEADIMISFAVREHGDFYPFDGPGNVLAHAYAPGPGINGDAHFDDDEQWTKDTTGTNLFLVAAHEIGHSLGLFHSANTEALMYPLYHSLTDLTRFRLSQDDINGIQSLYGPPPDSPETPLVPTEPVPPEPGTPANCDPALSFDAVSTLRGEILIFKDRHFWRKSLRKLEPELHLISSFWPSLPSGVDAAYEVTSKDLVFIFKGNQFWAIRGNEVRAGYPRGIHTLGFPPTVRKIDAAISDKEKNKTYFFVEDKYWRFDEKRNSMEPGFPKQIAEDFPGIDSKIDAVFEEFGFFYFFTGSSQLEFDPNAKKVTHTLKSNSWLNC

[8] = molecular target: T5, MMP-8 (Homo sapiens, UniProt P22894); conditions: 30° C., 40 nM enzyme, 40 μM substrate
T5 construct: made in house; host or cells: CHO-K1 cells
T5 sequence (P22894 101-467, species assumed): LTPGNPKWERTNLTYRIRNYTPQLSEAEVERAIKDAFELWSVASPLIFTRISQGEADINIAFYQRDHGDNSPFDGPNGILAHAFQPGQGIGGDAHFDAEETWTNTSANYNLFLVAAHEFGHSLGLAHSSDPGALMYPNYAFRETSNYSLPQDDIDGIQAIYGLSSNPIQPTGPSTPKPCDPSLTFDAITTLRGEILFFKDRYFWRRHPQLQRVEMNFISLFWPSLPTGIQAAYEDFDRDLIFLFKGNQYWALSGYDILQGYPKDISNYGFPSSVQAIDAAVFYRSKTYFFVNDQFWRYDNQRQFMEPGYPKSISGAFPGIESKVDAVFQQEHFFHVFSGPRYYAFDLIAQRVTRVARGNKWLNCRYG

[9] = molecular target: T2, MMP-2; conditions: MMP-2, earlier study

hydroxamate-containing peptidomimetic onto the N-terminus of (Gly-Pro-Hyp)-4-Gly-Pro-Pro-Gly-Ser-Ser [C-terminally branched construct of a second earlier study carrying a hydroxamate-containing peptidomimetic]
IC50 [1]: ~0.009 µM

C6-(Gly-Pro-Hyp)4-Gly-Pro-Pro-Gly˜Val-Val-Gly-Glu-Gln-Gly-Glu-Gln-Gly-Pro-Pro-(Gly-Pro-Hyp)4-NH2 [SEQ ID NO: 5]
time to hydrolysis of the substrate by MMP-9 [2]: ≤ 1 h
hydrolysis of the substrate by MMP-1 (in words) [3]: did not cleave the substrate even after 24 h

(Gly-Pro-Hyp)5-Gly-Pro-Gln-Gly˜Leu-Ala-Gly-Gln-Arg-Gly-Ile-Arg-(Gly-Pro-Hyp)5-NH2 [SEQ ID NO: 6]
hydrolysis of the substrate by MMP-2 (in words) [4]: hydrolyzed the substrate efficiently
hydrolysis of the substrate by MMP-14 (in words) [5]: hydrolyzed the substrate efficiently
hydrolysis of the substrate by MMP-13 (in words) [6]: hydrolyzed the substrate efficiently
hydrolysis of the substrate by MMP-3 (in words) [7]: did not
hydrolysis of the substrate by MMP-8 (in words) [8]: hydrolyzed the substrate efficiently
hydrolysis of the substrate by MMP-1 (in words) [3]: hydrolyzed the substrate efficiently

(Pro-Pro-Gly)12-NHOH
IC50 [9]: 90 µM

(Pro-Pro-Gly)6-NHOH
IC50 [9]: 160 µM
